Measured values: patent US20240325557A1, “TREATMENT OF CANCER” (INNATE PHARMA, priority 2020, published 2024)

Experiments:
Test in all cases: Binding to cell surface expressed Nectin-4 point mutant
Details in all cases: HEK-293T
[1] = molecular target: T1, Nectin-4 Mutant 3 (A76S/Q77R/E78A/S91N) (Homo sapiens, UniProt Q96NY8, A76S/E78A/Q77R/S91N)
T1 construct: expressed in transfected cells; host or cells: HEK293T
T1 sequence (Q96NY8 32-510 A76S/Q77R/E78A/S91N): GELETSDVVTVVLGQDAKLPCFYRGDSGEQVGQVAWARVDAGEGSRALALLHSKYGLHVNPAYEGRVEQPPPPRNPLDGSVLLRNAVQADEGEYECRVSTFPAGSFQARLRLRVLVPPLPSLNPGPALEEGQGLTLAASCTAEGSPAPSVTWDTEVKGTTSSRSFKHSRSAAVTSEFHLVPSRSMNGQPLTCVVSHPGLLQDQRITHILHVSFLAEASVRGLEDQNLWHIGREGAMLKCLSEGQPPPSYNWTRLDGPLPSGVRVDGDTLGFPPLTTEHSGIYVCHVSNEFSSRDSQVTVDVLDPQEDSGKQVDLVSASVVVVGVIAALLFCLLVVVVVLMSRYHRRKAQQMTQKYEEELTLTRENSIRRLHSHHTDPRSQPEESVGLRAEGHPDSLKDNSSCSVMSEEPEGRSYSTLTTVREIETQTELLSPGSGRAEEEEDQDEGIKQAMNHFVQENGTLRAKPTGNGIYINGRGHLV
Text: (§1) Combined with the published structures of the Nectin-4 domains, Nectin-4 mutations at surface exposed amino acids residues were designed. Nectin-4 domain structure was modelled based on Protein Data Bank reference: 4FRW (domains V et C1). Human Nectin-4 used was NCBI Reference Sequence: NP_112178.2, mouse Nectin-4 used was NCBI Reference Sequence: AAL79833.1, cynomolgus Nectin-4 used was NCBI Reference Sequence: XP_005541277.1, rat Nectin-4 used was NCBI Reference Sequence: NP_001102546.1. The cells expressing the Nectin-4 mutants are then be used for testing anti-Nectin-4 antibodies for loss of binding to different Nectin-4 mutants to identify antibodies that bind to the same site on Nectin-4. […] FIGS. 12A and 12B show a molecular model of the human Nectin-4 protein, indicating the position of substituted residues in mutants 7 (12A) and in mutants 7bis (12B); these mutants are in the C1 domain identify two sites at the junction of domain C1 and V domain that are on opposing faces of the Nectin-4 protein.
(§2) Nectin-4 mutants were generated by PCR. The sequences amplified were run on agarose gel and purified using the Macherey Nagel PCR Clean-Up Gel Extraction kit. The purified PCR products generated for each mutant were then ligated into an expression vector, with the ClonTech InFusion system. The vectors containing the mutated sequences were prepared as Miniprep and sequenced. After sequencing, the vectors containing the mutated sequences were prepared as Midiprep using the Promega PureYield™ Plasmid Midiprep System. HEK293T cells were grown in DMEM medium (Invitrogen), transfected with vectors using Invitrogen's Lipofectamine 2000 and incubated at 37° C. in a CO2 incubator for 48 hours prior to testing for transgene expression. The targeted amino acid mutations are shown in Table 2 below, listing the residue present in wild-type Nectin-4/position of residue/residue present in mutant Nectin-4, with position reference being to the Nectin-4 protein with leader peptide shown in SEQ ID NO: 1.

[2] = molecular target: T2, Nectin-4 Mutant 7bis (A72P/G73N/K197T/S199A) (Homo sapiens, UniProt Q96NY8, A72P/G73N/K197T/S199A)
T2 construct: expressed in transfected cells; host or cells: HEK293T
T2 sequence (Q96NY8 32-510 A72P/G73N/K197T/S199A): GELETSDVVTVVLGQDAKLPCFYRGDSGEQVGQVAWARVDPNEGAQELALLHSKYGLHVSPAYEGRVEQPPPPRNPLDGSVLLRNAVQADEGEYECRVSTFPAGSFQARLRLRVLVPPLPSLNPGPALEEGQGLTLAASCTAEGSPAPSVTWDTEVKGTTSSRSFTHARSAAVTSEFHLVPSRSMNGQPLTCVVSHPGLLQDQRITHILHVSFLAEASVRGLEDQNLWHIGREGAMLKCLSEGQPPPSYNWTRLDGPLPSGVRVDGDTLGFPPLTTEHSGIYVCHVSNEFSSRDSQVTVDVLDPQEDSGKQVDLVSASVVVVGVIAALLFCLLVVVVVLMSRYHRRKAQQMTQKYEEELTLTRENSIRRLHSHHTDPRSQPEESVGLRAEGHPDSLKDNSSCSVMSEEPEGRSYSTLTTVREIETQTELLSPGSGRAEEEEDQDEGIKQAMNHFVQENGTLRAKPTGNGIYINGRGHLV
Text: as §1, §2

[3] = molecular target: T3, Nectin-4 Mutant 1 (S58P/G59D/Q61A/N106D/P107A) (Homo sapiens, UniProt Q96NY8, G59D/N106D/P107A/Q61A/S58P)
T3 construct: expressed in transfected cells; host or cells: HEK293T
T3 sequence (Q96NY8 32-510 S58P/G59D/Q61A/N106D/P107A): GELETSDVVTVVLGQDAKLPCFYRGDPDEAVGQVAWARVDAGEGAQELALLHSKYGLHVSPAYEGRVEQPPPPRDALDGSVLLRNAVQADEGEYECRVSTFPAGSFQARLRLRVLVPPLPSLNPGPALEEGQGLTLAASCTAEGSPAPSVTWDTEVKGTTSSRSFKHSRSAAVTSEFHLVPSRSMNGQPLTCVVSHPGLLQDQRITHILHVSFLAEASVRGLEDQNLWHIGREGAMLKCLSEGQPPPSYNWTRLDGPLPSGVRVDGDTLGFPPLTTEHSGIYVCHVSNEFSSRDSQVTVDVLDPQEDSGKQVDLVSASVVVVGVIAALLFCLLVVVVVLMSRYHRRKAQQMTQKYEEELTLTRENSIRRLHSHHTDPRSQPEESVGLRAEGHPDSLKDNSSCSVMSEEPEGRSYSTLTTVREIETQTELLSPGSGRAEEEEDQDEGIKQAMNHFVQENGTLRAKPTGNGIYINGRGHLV
Text: as §1, §2

[4] = molecular target: T4, Nectin-4 Mutant 2 (V90S/P92A/A93S/E95A/G96D) (Homo sapiens, UniProt Q96NY8, A93S/E95A/G96D/P92A/V90S)
T4 construct: expressed in transfected cells; host or cells: HEK293T
T4 sequence (Q96NY8 32-510 V90S/P92A/A93S/E95A/G96D): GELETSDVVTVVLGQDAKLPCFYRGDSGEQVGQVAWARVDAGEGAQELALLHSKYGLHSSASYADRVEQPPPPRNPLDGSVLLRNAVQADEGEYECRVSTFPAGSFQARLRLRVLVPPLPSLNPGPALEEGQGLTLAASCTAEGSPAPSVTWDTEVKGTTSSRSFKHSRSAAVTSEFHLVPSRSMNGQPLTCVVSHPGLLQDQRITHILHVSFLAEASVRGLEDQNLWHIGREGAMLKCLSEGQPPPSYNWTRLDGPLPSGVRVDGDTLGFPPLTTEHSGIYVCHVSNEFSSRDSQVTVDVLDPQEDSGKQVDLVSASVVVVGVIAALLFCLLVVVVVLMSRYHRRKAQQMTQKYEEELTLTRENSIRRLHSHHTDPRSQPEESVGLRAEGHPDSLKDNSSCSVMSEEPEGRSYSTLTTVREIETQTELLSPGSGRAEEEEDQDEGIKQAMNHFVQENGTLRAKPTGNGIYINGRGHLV
Text: as §1, §2

Row | Molecule | association with Nectin-4 Mutant 3 [1] | association with Nectin-4 Mutant 7bis [2] | association with Nectin-4 Mutant 1 [3] | association with Nectin-4 Mutant 2 [4]
1 | 5E7 (antibody, V domains shown) VH: QVQLQQPGAELVKPGASVKLSCKASGYIFTSYWMHWVKQRPGQGLEWIGEIDPSDSYTNYNQKFKGKATLTLDKSSSTTYMQLSSLTSEDSAVYYCVRGYGNYGDYWGQGTTLTVSS VL: DVVMTQAAFSNPVTLGTSASISCRSSKSLLHSNGITYLYWYLQKPGQSPQLLIYQMSNLASGVPDRFSSSGSGTDFTLRISRVEAEDVGVYYCAQNLELPWTFGGGTKLEIK | + | − | + | +
2 | 10B12: anti-Nectin-4 antibody, VH SEQ ID NO: 24, VL SEQ ID NO: 25, binds junction of domain C1 and V (antibody, listed as Mus musculus, V domains shown) VH: QVQLQQPGAELVKPGASVKLSCKASGYTFTSYWMHWVKQRPGQGLEWIGEIDPSDSYTNYNQKFKGKATLTVDKSSSTAYMQLSSLTSEDSAVYYCVRGYGNYGDYWGQGTTLTVSS VL: DIVMTQAAFSNPVTLGTSASISCRSSKSLLHSNGITYLYWYLQKPGQSPQLLIYQMSNLASGVPDRFSSSGSGTDFTLRISRVEAEDVGVYYCAQNLELPWTFGGGTKLEIK | + | − | + | +
3 | N41 (antibody, V domains shown) VH: QVQLKQSGPGLVQPSQSLSITCTVSGFSLTNYGVHWVRQSPGKGLEWLGVIWSGGSTDYNAAFISRLSISKDTSKSQVFFKMNSLQADDTAIYYCARELIHAMDNWGQGTSVTVSS VL: DIQMTQSPASLSVSVGETVTITCRASENIYSNLAWYQQKQGNSPQLLVFAATNLADGVPSRFSGSGSGTQYSLKINSLQSEDFGTYYCQHFWGTPTFGGGTKLEIK | + | + | − | +
